From patent US20070253950A1 (Pfizer, published 2007) come the findings set out here.

For assay [1], the target named is T1, human RAGE-strep tag fusion protein (human, UniProt Q15109 23-344).
T1 construct: monomeric soluble human RAGE; also called hRAGE-SA; soluble human streptavidin-tagged RAGE
Description: BIACORE capture assay: hRAGE-SA over antibody captured on anti-human Fc; 1:1 Langmuir global fit; average of FC2-FC4. As for the experimental part: (§1) The assays were performed by coating anti-human Fc antibodies onto a CM5 BIA chip with 5000 RU (pH 5.0, 7 min.) in flow cells 1-4. Each antibody was captured by flowing at 2.0 μg/ml over the anti-Fc antibodies in flow cells 2-4 (flow cell 1 was used as a reference).

Assay [2] deals with T1, human RAGE-strep tag fusion protein. Description: BIACORE capture assay: hRAGE-SA over antibody captured on anti-human Fc; steady state affinity; FC4. As for the experimental part:
as §1

Assay [3] concerns the target T2, human RAGE-Fc fusion protein (human, UniProt Q15109 23-344).
T2 construct: amino acids 1-344 of human RAGE appended to the Fc domain of human IgG; also called hRAGE-Fc; huRAGE-Fc
Description: ligand competition ELISA, panel 'Blocks hRAGE-Fc interaction with S100-A'; blocked ligand S100-A. Background: An ELISA detects its analyte on a solid surface through an enzyme-linked reagent.

Assay [4] concerns the target T2, human RAGE-Fc fusion protein. Description: antibody competition ELISA on hRAGE-Fc; competitor: biotinylated XT-M4. How it is done: ELISA plates were coated overnight with 1 ug/ml human RAGE-Fc. […] Briefly, plates were coated overnight with 1 ug/ml human RAGE-Fc.
Assay [5] has as its target T3, murine RAGE, full length, on cells (murine, UniProt Q62151 23-402).
T3 construct: on transfected or infected 293 cells; also called 293-murine RAGE; cell-surface mRAGE
T3 chain: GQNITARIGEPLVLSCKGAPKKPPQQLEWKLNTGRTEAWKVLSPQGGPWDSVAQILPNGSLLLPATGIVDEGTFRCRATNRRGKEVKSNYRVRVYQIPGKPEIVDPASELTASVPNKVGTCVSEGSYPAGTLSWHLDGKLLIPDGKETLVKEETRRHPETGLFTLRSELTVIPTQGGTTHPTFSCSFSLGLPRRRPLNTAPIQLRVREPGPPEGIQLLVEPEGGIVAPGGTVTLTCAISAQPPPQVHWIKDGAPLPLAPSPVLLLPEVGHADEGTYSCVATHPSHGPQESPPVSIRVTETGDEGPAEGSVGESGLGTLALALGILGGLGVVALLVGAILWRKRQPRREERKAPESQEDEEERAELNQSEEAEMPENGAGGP
Description: cell-based ELISA, transfected 293 cells. As for the experimental part:
Human embryonic kidney 293 cells (American Tissue Type Culture, Manassas, Va.) cells were plated at 5×10⁶ cells per 10 cm² tissue culture plate and cultured overnight at 37° C. The next day cells were transfected with RAGE expression plasmids (pAdori1-3 vector encoding mouse, human, baboon, cynomologus monkey or rabbit RAGE) using LF2000 reagent (Invitrogen, Carlsbad Calif.) at a 4:1 ratio of reagent to plasmid DNA using the manufacturers protocol. Cells were harvested 48 hrs post-transfection using trypsin, washed once with phosphate buffered saline (PBS), then suspended in growth media without serum at a concentration of 2×10⁶ cells/ml.
Primary antibodies at 1 μg/ml were serially diluted at 1:2 or 1:3 in PBS containing 1% bovine serum albumin (BSA) in a 96-well plate. RAGE-transfected 293 cells or control parental 293 cells (50 μl) at 2×10⁶ cells/ml in serum-free growth medium were added to U-bottom 96 well plate for a final concentration of 1×10⁵ cells/well. The cells were centrifuged at 1600 rpm for 2 minutes. The supernatants were gently discarded by hand with a one-time swing and the plate was patted gently to loose the cell pellet. The diluted primary anti-RAGE antibodies or isotype-matching control antibodies (100 μl) in cold PBS containing 10% fetal calf serum (FCS) were added to the cells and incubated on ice for 1 hour. The cells were stained with 100 μl of diluted secondary anti-IgG antibody HRP conjugates (Pierce Biotechnology, Rockford, Ill.) on ice for 1 hour. Following each step of primary antibody and secondary antibody incubations, the cells were washed 3 times with ice-cold PBS. 100 μl of substrate TMB1 component (BIO FX, TMBW-0100-01) was added to the plate and incubated for 5-30 minutes at room temperature. The color development was stopped by adding 100 μl of 0.18M H₂SO₄. The cells were centrifuged and the supernatants are transferred to a fresh plate and read at 450 nm (Soft MAX pro 4.0, Molecular Devices Corporation, Sunnyvale, Calif.).

The target of assay [6] is T4, murine RAGE-strep tag fusion protein (murine, UniProt Q62151 23-343).
T4 construct: also called mRAGE-strep; mRAGE-SA
T4 chain: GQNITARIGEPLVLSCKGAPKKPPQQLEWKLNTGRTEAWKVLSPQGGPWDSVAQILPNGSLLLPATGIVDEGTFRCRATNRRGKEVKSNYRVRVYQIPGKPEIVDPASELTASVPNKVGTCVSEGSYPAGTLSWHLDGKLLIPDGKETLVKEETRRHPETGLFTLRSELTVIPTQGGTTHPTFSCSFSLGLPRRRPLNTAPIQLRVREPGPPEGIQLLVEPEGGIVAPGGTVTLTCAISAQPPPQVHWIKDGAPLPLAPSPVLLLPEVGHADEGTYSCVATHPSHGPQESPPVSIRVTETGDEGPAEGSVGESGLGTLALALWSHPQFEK
Description: BIACORE capture assay: mRAGE-SA (SA-Mu RAGE) over antibody captured on anti-human Fc; 1:1 Langmuir global fit; FC4. How it is done:
as §1
A general note: SPR reads the build-up and loss of mass on a sensor chip optically.

In assay [7] the target is T1, human RAGE-strep tag fusion protein. Description: BIACORE capture assay: hRAGE-SA over antibody captured on anti-human Fc; 1:1 Langmuir global fit; FC4. How it is done: as §1

B1: chimeric XT-M4 (antibody, V domains shown)
VH: EVQLVESGGGLVQPGRSLKLSCVVSGFTFNNYWMTWIRQTPGKGLEWVASINNSGDNTYYPDSVKDRFTISRDNAKSTLYLQMNSLRSEDTATYYCTRGGDITTGFDYWGQGVMVTVSS
VL: DIQMTQSPSSMSVSLGDTITITCRASQDVGIYVNWFQQKPGKSPRRMIYRATNLADGVPSRFSGSRSGSIYSLTISSLESEDVADYHCLEFDEHPLTFGSGTKVEIK
modifications: N-linked oligosaccharide at Asn52 (CDR2) on part of the heavy chains
notes: rat XT-M4 variable regions fused to human kappa light chain and human IgG1 heavy chain constant regions; L234A and G237A in the human IgG1 Fc region; also called chimeric antibody XT-M4; XT-M4-A-1
As usually defined, the Kd is a measure of binding affinity in units of concentration. High values mean lower affinity, low ones higher affinity. A word on the koff: it is the first-order rate constant of dissociation. Read a low koff as slow dissociation. The term kon denotes the second-order rate constant of association. Read a high kon as faster complex formation. What is called EC50 is the midpoint of the concentration-response curve. A high value points to a less potent agent. For the molecule B1, the Kd in assay [1] is 7.91 nM; in assay [2], 11 nM; in assay [6], 2 nM; in assay [7] it was 8.2 nM. Besides, the koff in assay [1] turned out to be 0.0351 s⁻¹; in assay [6], 0.0041 s⁻¹; in assay [7] it was 0.05 s⁻¹. Moreover, the kon turned out to be 4.41e+06 M⁻¹ s⁻¹ in assay [1], 2.1e+06 M⁻¹ s⁻¹ in assay [6] and 6.1e+06 M⁻¹ s⁻¹ in assay [7]. The “IC50 (read off the curve)” value in assay [3] was about 0.08 µg/mL; in assay [4], about 0.4 µg/mL. Also, in assay [5], the EC50 is about 1.5 nM.
